Starred links: 1 amine or outer side, 2 acyl side, 3 side chain; linkers in the order of their positions; H or OH if unused. Positions of bridges follow the written chain, without caps; N, C: chain ends. Non-standard residues stand in square brackets, D forms with d. Residues, ends and D or L forms follow the SMILES beside them. Groups on a side chain read outwards from the residue. *: point of attachment. KCOmeglumine = N6-(methyl-((2S,3R,4R,5R)-2,3,4,5,6-pentahydroxyhexyl)carbamoyl)-L-lysine, CN(C[C@H](O)[C@@H](O)[C@H](O)[C@H](O)CO)C(=O)NCCCC[C@H](N[*:1])C(=O)[*:2]; KCOpipzaa = N6-(4-(carboxymethyl)piperazine-1-carbonyl)-L-lysine, O=C(NCCCC[C@H](N[*:1])C(=O)[*:2])N1CCN(CC(=O)[*:3])CC1; OCOmPEG10000 = methoxypolyethyleneglycol (10000) carbonate on Lys NZ; Piperazinyl(4-CH2COOH) = O=C(O)CN1CCN(*)CC1; 1Nal = N[C@@H](Cc1cccc2ccccc12)C(=O)O; Gly(NCH2CH2Ph) = O=C(O)CNCCc1ccccc1; 4Pal = N[C@@H](Cc1ccncc1)C(=O)O; CO = O=C([*:1])[*:2]
B1: TGFb1_027 (peptide)
peptide: {CH2CO}-F[1Nal]VVNV[4Pal]DD[Gly(NCH2CH2Ph)]V[1Nal]YHECG-NH2
modifications: thioether N-16
SMILES: CC(C)[C@@H]1NC(=O)CN(CCc2ccccc2)C(=O)[C@H](CC(=O)O)NC(=O)[C@H](CC(=O)O)NC(=O)[C@H](Cc2ccncc2)NC(=O)[C@H](C(C)C)NC(=O)[C@H](CC(N)=O)NC(=O)[C@H](C(C)C)NC(=O)[C@H](C(C)C)NC(=O)[C@H](Cc2cccc3ccccc23)NC(=O)[C@H](Cc2ccccc2)NC(=O)CSC[C@@H](C(=O)NCC(N)=O)NC(=O)[C@H](CCC(=O)O)NC(=O)[C@H](Cc2c[nH]cn2)NC(=O)[C@H](Cc2ccc(O)cc2)NC(=O)[C@H](Cc2cccc3ccccc23)NC1=O
notes: cyclic peptide; C-terminal G is a linker
B2: TGFb1_032 (peptide)
peptide: {CH2CO}-F[1Nal]VVNV[4Pal]DD[Gly(NCH2CH2Ph)]V[1Nal]YH[KCOpipzaa]CGK(OCOmPEG10000)-NH2
modifications: thioether N-16
notes: cyclic peptide; linker G K(OCOmPEG10000) at the C-terminus
B3: TGFb1_028 (peptide)
peptide: {CH2CO}-F[1Nal]V[KCOmeglumine]NV[4Pal]DD[Gly(NCH2CH2Ph)]V[1Nal]YHECG-NH2
modifications: thioether N-16
SMILES: CC(C)[C@@H]1NC(=O)CN(CCc2ccccc2)C(=O)[C@H](CC(=O)O)NC(=O)[C@H](CC(=O)O)NC(=O)[C@H](Cc2ccncc2)NC(=O)[C@H](C(C)C)NC(=O)[C@H](CC(N)=O)NC(=O)[C@H](CCCCNC(=O)N(C)C[C@H](O)[C@@H](O)[C@H](O)[C@H](O)CO)NC(=O)[C@H](C(C)C)NC(=O)[C@H](Cc2cccc3ccccc23)NC(=O)[C@H](Cc2ccccc2)NC(=O)CSC[C@@H](C(=O)NCC(N)=O)NC(=O)[C@H](CCC(=O)O)NC(=O)[C@H](Cc2c[nH]cn2)NC(=O)[C@H](Cc2ccc(O)cc2)NC(=O)[C@H](Cc2cccc3ccccc23)NC1=O
notes: as for B1
B4: TGFb1_029 (peptide)
peptide: {CH2CO}-F[1Nal]V[KCOmeglumine]NV[4Pal]DE[Gly(NCH2CH2Ph)]V[1Nal]YHECG-NH2
modifications: thioether N-16
SMILES: CC(C)[C@@H]1NC(=O)CN(CCc2ccccc2)C(=O)[C@H](CCC(=O)O)NC(=O)[C@H](CC(=O)O)NC(=O)[C@H](Cc2ccncc2)NC(=O)[C@H](C(C)C)NC(=O)[C@H](CC(N)=O)NC(=O)[C@H](CCCCNC(=O)N(C)C[C@H](O)[C@@H](O)[C@H](O)[C@H](O)CO)NC(=O)[C@H](C(C)C)NC(=O)[C@H](Cc2cccc3ccccc23)NC(=O)[C@H](Cc2ccccc2)NC(=O)CSC[C@@H](C(=O)NCC(N)=O)NC(=O)[C@H](CCC(=O)O)NC(=O)[C@H](Cc2c[nH]cn2)NC(=O)[C@H](Cc2ccc(O)cc2)NC(=O)[C@H](Cc2cccc3ccccc23)NC1=O
notes: as for B1
B5: TGFb1_021 (peptide)
peptide: {CH2CO}-F[1Nal]VVNV[4Pal]DE[Gly(NCH2CH2Ph)]V[1Nal]YH[KCOpipzaa]CG-NH2
modifications: thioether N-16
SMILES: CC(C)[C@@H]1NC(=O)CN(CCc2ccccc2)C(=O)[C@H](CCC(=O)O)NC(=O)[C@H](CC(=O)O)NC(=O)[C@H](Cc2ccncc2)NC(=O)[C@H](C(C)C)NC(=O)[C@H](CC(N)=O)NC(=O)[C@H](C(C)C)NC(=O)[C@H](C(C)C)NC(=O)[C@H](Cc2cccc3ccccc23)NC(=O)[C@H](Cc2ccccc2)NC(=O)CSC[C@@H](C(=O)NCC(N)=O)NC(=O)[C@H](CCCCNC(=O)N2CCN(CC(=O)O)CC2)NC(=O)[C@H](Cc2c[nH]cn2)NC(=O)[C@H](Cc2ccc(O)cc2)NC(=O)[C@H](Cc2cccc3ccccc23)NC1=O
notes: as for B1

These molecules were tested against T1, recombinant human TGF-β1 (R&D systems) (human, UniProt P01137 279-390) (assay: SPR, TGF-β1 immobilised, single cycle kinetics). Details: not given.
T1 construct: Bought protein; immobilised on a CM3 chip (SPR) or on Dynabeads (ELISA), added to cells in the SBE reporter assay; also called TGF-β1 beads
T1 sequence (P01137 279-390 limits assumed): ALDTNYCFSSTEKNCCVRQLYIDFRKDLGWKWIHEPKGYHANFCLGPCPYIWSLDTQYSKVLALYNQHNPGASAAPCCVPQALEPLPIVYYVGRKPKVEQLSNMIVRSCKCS
Protocol: (§1) Subsequently, 50 μL of 60 mM EDC solution (Global Life Science Technologies Japan Co., Ltd.) and 50 μL of 650 mM NHS solution (Global Life Science Technologies Japan Co., Ltd.) were mixed. Next, the reaction was carried out at a flow rate of 10 μL/min for 420 seconds. Then, 150 μL of 0.2 μM TGF-β solution diluted in 10 mM acetic acid solution (pH 5.0) was prepared and reacted at a flow rate of 10 μL/min for 420 seconds to immobilize TGF-β on the CM3 sensor chip. TGF-β was human-derived TGF-β1 or β2 (recombinant human TGF-β1, 2) and was obtained from R&D systems. After immobilization, capping was performed by reacting with 1.0 M ethanolamine aqueous solution (Global Life Science Technologies Japan Co., Ltd.) at a flow rate of […] for 420 seconds.
(§2) A liquid prepared by dissolving each peptide at 10 mM in DMSO solution was diluted with running buffer to prepare a peptide-dissolved solution at a final concentration of 10 μM. Subsequently, 50 nM, 25 nM, 12.5 nM, 5 nM, and 2.5 nM peptide solutions were prepared. Using the above samples, the kinetics of each peptide against TGF-β was obtained by SPR measurement.
(§3) The kinetics evaluation model was Single Cycle Kinetics, and curve fitting was performed using Biacore T200 Evaluation Software Version 3.0 (Global Life Science Technologies Japan Co., Ltd.). The binding of various peptides to TGF-β was evaluated by performing least-squares curve fitting on the obtained sensorgram to calculate the KD value.
B1 was tested, and the Kd was 1.11 nM. Work on B2 yielded a Kd of 3.08 nM. Work on B3 yielded a Kd of 1.31 nM. For B4, the Kd was 0.94 nM. Work on B5 yielded a Kd of 1.37 nM.

What follows are molecules tested against T1, recombinant human TGF-β1 (R&D systems) (assay: cell-based or functional assay). Details: not given.
In the case of B1, the “SBE reporter % inhibition, peptide 0.062 nM” value is reported as 2.53%, the “SBE reporter % inhibition, peptide 0.185 nM” value is reported as 9.14% and the “SBE reporter % inhibition, peptide 0.56 nM” value is reported as 28.4%. The “SBE reporter % inhibition, peptide 1.7 nM” value was 59.4%, the “SBE reporter % inhibition, peptide 5.0 nM” value was 84.9% and the “SBE reporter % inhibition, peptide 15.0 nM” value was 95.5%. For B2, the “SBE reporter % inhibition, peptide 0.062 nM” value was 2.67%, the “SBE reporter % inhibition, peptide 0.185 nM” value was 7.18% and the “SBE reporter % inhibition, peptide 0.56 nM” value was 1.11%. For the same molecule, the “SBE reporter % inhibition, peptide 1.7 nM” value was 4.77%, the “SBE reporter % inhibition, peptide 5.0 nM” value was 54% and the “SBE reporter % inhibition, peptide 15.0 nM” value was 91.3%. With B3 the “SBE reporter % inhibition, peptide 0.062 nM” value was 0.94%, the “SBE reporter % inhibition, peptide 0.185 nM” value was 6.17% and the “SBE reporter % inhibition, peptide 0.56 nM” value was 20.4%. The “SBE reporter % inhibition, peptide 1.7 nM” value was 47.6%, the “SBE reporter % inhibition, peptide 5.0 nM” value was 73.9% and the “SBE reporter % inhibition, peptide 15.0 nM” value was 91.7%. B4 was tested, and the “SBE reporter % inhibition, peptide 0.062 nM” value was 12%, the “SBE reporter % inhibition, peptide 0.185 nM” value was 16.9% and the “SBE reporter % inhibition, peptide 0.56 nM” value was 32.4%. For the same molecule, the “SBE reporter % inhibition, peptide 1.7 nM” value was 63.7%, the “SBE reporter % inhibition, peptide 5.0 nM” value was 85.8% and the “SBE reporter % inhibition, peptide 15.0 nM” value was 96.8%. For B5, the “SBE reporter % inhibition, peptide 0.062 nM” value was 10.2%, the “SBE reporter % inhibition, peptide 0.185 nM” value was 26.9% and the “SBE reporter % inhibition, peptide 0.56 nM” value was 58.9%. For the same molecule, the “SBE reporter % inhibition, peptide 1.7 nM” value was 87.8%, the “SBE reporter % inhibition, peptide 5.0 nM” value was 97.1% and the “SBE reporter % inhibition, peptide 15.0 nM” value was 98.8%.

Each molecule was assayed against T2, recombinant human TGF-β1 (Homo sapiens, UniProt P01137) (assay: SPR intermolecular interaction test, TGF-β1 immobilized on CM3 sensor chip (Biacore T200)). Details: Single Cycle Kinetics, human TGF-β1.
T2 construct: purchased R&D systems
T2 sequence (P01137 279-390 limits assumed): as above
Type: binding
Protocol: In this Example, (1) the activity of binding to TGF-β for various peptides consisting of the amino acid sequences set forth in SEQ ID NOs: 2-33 synthesized in Examples 1 to 5 and 7 was evaluated. (2) The activity and selectivity of binding of the peptide consisting of the amino acid sequence set forth in SEQ ID NO: 13 synthesized in Example 2 against two isoforms of TGF-β (TGF-β1 and β2) were checked. For this purpose, the intermolecular interaction of each peptide against TGF-β was tested by surface plasmon resonance (SPR) in the method described below. Specific test methods are described below.
A CM3 sensor chip (Global Life Science Technologies Japan Co., Ltd.) was inserted into a BiacoreT200 (Global Life Science Technologies Japan Co., Ltd.). Three priming runs were performed using running buffer: HBS-EP+ (Global Life Science Technologies Japan Co., Ltd.). The system was then equilibrated at a flow rate of 30 μL/min.
as §1, §2, §3
CC(C)[C@@H]1NC(=O)CN(CCc2ccccc2)C(=O)[C@H](CC(=O)O)NC(=O)[C@H](CC(=O)O)NC(=O)[C@H](Cc2ccncc2)NC(=O)[C@H](C(C)C)NC(=O)[C@H](CC(N)=O)NC(=O)[C@H](C(C)C)NC(=O)[C@H](C(C)C)NC(=O)[C@H](Cc2cccc3ccccc23)NC(=O)[C@H](Cc2ccccc2)NC(=O)CSC[C@@H](C(N)=O)NC(=O)[C@H](CCCCNC(=O)N2CCN(CC(=O)O)CC2)NC(=O)[C@H](Cc2c[nH]cn2)NC(=O)[C@H](Cc2ccc(O)cc2)NC(=O)[C@H](Cc2cccc3ccccc23)NC1=O [TGFb1_013] ({CH2CO}-F[1Nal]VVNV[4Pal]DD[Gly(NCH2CH2Ph)]V[1Nal]YHK([CO-Piperazinyl(4-CH2COOH)])C-NH2; thioether N-16) was tested, and the Kd was 0.82 nM.

Reference: US20250034212A1, “PEPTIDE” (PEPTIDREAM INC., priority 2021, published 2025)
